In US20250122311A1 (YEDA RESEARCH AND DEVELOPMENT, published 2025) one finds binding result and Kd data, which are given here for 8 molecules.

Broadly, the Kd is the free concentration of one partner at which half of the binding sites on the other are occupied at equilibrium, for simple one-to-one binding.

Positions count from the first letter of the chain named.

The target of assay [1] is T1, recombinant prostate-specific antigen (PSA) (human, UniProt P07288 25-261, limits assumed).
T1 construct: also called recombinant PSA; recombinantly produced PSA
T1 sequence (P07288 25-261 limits assumed): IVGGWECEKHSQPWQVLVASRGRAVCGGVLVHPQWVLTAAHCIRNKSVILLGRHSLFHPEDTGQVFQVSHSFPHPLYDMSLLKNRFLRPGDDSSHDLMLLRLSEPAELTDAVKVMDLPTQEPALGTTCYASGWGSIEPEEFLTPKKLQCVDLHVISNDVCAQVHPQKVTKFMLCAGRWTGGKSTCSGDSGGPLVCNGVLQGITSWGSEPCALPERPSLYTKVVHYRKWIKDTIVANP
The assay is described as follows: ELISA of the protein G purified antibody on recombinant PSA. (In general: An ELISA detects its analyte on a solid surface through an enzyme-linked reagent.)

For assay [2], the target named is T1, recombinant prostate-specific antigen …. The assay is described as follows: immunoprecipitation with protein G after incubation with recombinant PSA; blot developed with a commercial anti-PSA antibody. The method, then:
(§1) FIGS. 4A-E present anti-PSA clone 10 humanization: FIG. 4A. Four anti-PSA antibodies were expressed as chimeras and expression was measured through ELISA of the supernatant SEQ ID Nos.: 83/84, 85/86, 87/88, 81/82). […] FIG. 4B. Expression of five humanized designs for clone 10 was measured through ELISA of the supernatant. […] FIG. 4C. […] FIG. 4D. […] Membrane was developed with a commercial anti-PSA antibody. […] FIG. 4E.

Assay [3] concerns the target T2, natively expressed PSA (supernatant of LNCaP cells) (human, UniProt P07288 25-261).
T2 construct: also called native PSA
The assay is described as follows: immunoprecipitation with protein G after overnight incubation with LNCaP supernatant; blot developed with a commercial anti-PSA antibody. The method, then: as §1

Assay [4] has as its target T3, hen-egg white lysozyme (hen, UniProt P00698 19-147).
T3 construct: also called HEWL
Kind of assay: yeast surface display of scFv, 240 nM lysozyme.

Assay [5] addresses T3, hen-egg white lysozyme. Kind of assay: surface plasmon resonance, Fab.
Assay [6] has as its target T3, hen-egg white lysozyme. The assay is described as follows: bilayer interferometry, IgG1 loaded on the sensor at 1 ug/mL, lysozyme at 1000, 250, 100, 25 and 10 nM. The method, then: FIGS. 5A-D present anti lysozyme antibody SDR-grafting: FIG. 5A. […] FIG. 5B. […] FIG. 5C. […] FIG. 5D. […] Lysozyme was at concentrations of […] and 1 μg/mL antibody was loaded onto the sensor.

T3 sequence (P00698 19-147 limits assumed): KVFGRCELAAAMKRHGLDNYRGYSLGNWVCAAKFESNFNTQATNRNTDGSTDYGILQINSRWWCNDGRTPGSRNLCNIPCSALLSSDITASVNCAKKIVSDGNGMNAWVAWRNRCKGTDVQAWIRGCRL
T2 sequence (P07288 25-261 limits assumed): as the sequence (P07288 25-261 limits assumed) above

B1: Anti-PSA Design 1 (humanized clone 10) (antibody, V domains shown)
VH: QVQLVQSGAEVKKPGSSVKVSCKASGYSFTDYNMNWVRQAPGQGLEWIGVISPDYGTPSYAQKFQGRVTITADESTSTAYMELSSLRSEDTAVYYCARGKGNYVVFAYWGQGTLVTVSS
VL: DIQMTQSPSSLSASVGDRVTITCKASQSVVNNVVWYQQKPGKAPKLLIYYASNRYSGVPSRFSGSGSGTDFTLTISSLQPEDFATYYCQQHYTSPLTFGPGTKVDIKR
notes: Full-length human IgG1/kappa chains; also called PSA1
In the case of B1, the binding result in assay [1] is reported as “binds”.

B2: Anti-PSA Design 4 (humanized clone 10) (antibody, V domains shown)
VH: QVQLQESGPGLVKPSETLSLTCTVSGYSFTDYNMNWIRQPPGKGLEWIGVISPDYGTPSYNPSLKSRVTISVDTSKNQFSLKLSSVTAADTAVYYCARGKGNYVVFAYWGQGTLVTVSS
VL: B1 VL with D70E
notes: Full-length human IgG1/kappa chains; also called PSA4
B2: the binding result in assay [2] and in assay [3] was “binds” throughout.

B3: Anti-PSA Design 2 (humanized clone 10) (antibody, V domains shown)
VH: B1 VH
VL: DIVMTQTPLSLSVTPGQPASISCKASQSVVNNVVWYLQKPGQPPQLLIYYASNRYSGVPDRFSGSGSGTDFTLKISRVEAEDVGVYYCQQHYTSPLTFGPGTKVDIKR
notes: Full-length human IgG1/kappa chains; also called PSA2
In the case of B3, the binding result in assay [1] is given as “binds”.

B4: Anti-PSA Design 3 (humanized clone 10) (antibody, V domains shown)
VH: B1 VH with Q1E, S16A, S17T, V20I, A24V, R38Q, Q43K, Q62E, E74T, S77D
VL: DIVMTQSPDSLAVSLGERATINCKASQSVVNNVVWYQQKPGQPPKLLIYYASNRYSGVPDRFSGSGSGTDFTLTISSLQAEDVAVYYCQQHYTSPLTFGPGTKVDIKR
notes: Full-length human IgG1/kappa chains; also called PSA3
Consider B4, for which, in assay [1], the binding result is reported as “binds”.

B5: Anti-PSA Design 5 (humanized clone 10) (antibody, V domains shown)
VH: B1 VH with Q1E, S16A, S17T, V20I, A24V, R38Q, Q43K, Q62E, E74T, S77D
VL: B1 VL with D70E
notes: Full-length human IgG1/kappa chains; also called PSA5
Consider B5, for which the binding result in assay [2] was “binds”.

B6: Anti-HEWL Design 6, scFv on yeast surface (scFv, V domains shown, not shown: large carriers; small tags and cut ends)
VH: EVQLVQSGAEVKKPGATVKISCKVSGYTFSTYWMEWVQQAPGKGLEWMGEVLPGSGSTYYAEKFQGRVTITADTSTDTAYMELSSLRSEDTAVYYCARGDGYFQHWGQGTLVTVSS
VL: EIVLTQSPDFQSVTPKEKVTITCRASQSISSNLHWYQQKPDQSPKLLIKYASQSFSGVPSRFSGSGSGTDFTLTINSLEAEDAATYYCHQSNSWPRTFGPGTKVDIK
notes: also called Des6 (scFv format)
Regarding B6, the binding result in the assay with hen-egg white lysozyme [4] is reported as “binds”.

B7: Anti-HEWL Design 1, human Fab (Fab, V domains shown)
VH: B6 VH
VL: DIQMTQSPSSLSASVGDRVTITCRASQSISSNLNWYQQKPGKAPKLLIYYASSLQSGVPSRFSGSGSGTDFTLTISSLQPEDFATYYCQQSNSWPRTFGPGTKVDIKR
notes: The Fab heavy chain ends in a His tag; also called hαHEWL; design 1 (Fab)
The molecule B7 returned a Kd with hen-egg white lysozyme [5] of 41.6 nM.

B8: Anti-HEWL Design 1, human IgG1 (antibody, V domains shown)
VH: B6 VH
VL: B7 VL
notes: also called Des 1; Des1
Consider B8, for which, in the assay with hen-egg white lysozyme [6], the Kd came out at 11 nM.
